This passage reports fold UBR4 precipitated against NS5-HA (densitometry) results from paper PMC3610674.

Read-outs that look alike come from different tables or passages of the source.

The target of assay [1] is proNS5-HA (proteolytically-processed HA-tagged DENV2 NS5) (dengue virus serotype 2 (DENV2)). Put plainly: co-IP.
For assay [2] the target is unchanged. Put plainly: co-IP. This is another data set of the same source.

Consider “UBR4 (human, endogenous) (from UniProt Q5T4S7 1-5183) (natural protein)”, for which the fold UBR4 precipitated against NS5-HA (densitometry) was 7 fold in assay [1] and 2 fold in assay [2].
